Tests used:
[1] = target: RSV F protein of subtype A strain A2, on virus (respiratory syncytial virus subtype A …, UniProt P03420 26-574); assay: cell-based or functional assay
[2] = target: RSV F protein of subtype B strain 18537, on virus (respiratory syncytial virus subtype B …, UniProt P13843 26-574); assay: cell-based or functional assay
[3] = target: T1, prefusion-stabilized RSV F ectodomain (DS-Cav1), subtype B (respiratory syncytial virus subtype B); assay: BLI, IgG on sensor
T1 construct: extracellular domain; also called Prefusion subtype B
Experimental: IgG binding to DS-Cav1 and FA FP was determined by BLI measurements using a FortéBio Octet HTX instrument (Pall Life Sciences). […] Data was analyzed using the ForteBio Data Analysis Software 7. The data was fit to a 1:1 binding model to calculate an association and dissociation rate, and KD was calculated using the ratio kd/kₐ.

| Binder | Neut IC50 (ug/ml) subtype A [1] [µg/mL] | Neut IC50 (ug/ml) subtype B [2] [µg/mL] | Kd [3] [nM] |
| --- | --- | --- | --- |
| ADI-15642 (antibody, V domains shown, IgG; also called Antibody Number 206) VH: EVQLVESGGGLIQPGGSLRLSCAASGFTVSSKYMSWVRQAPGKGLEWVSIIYSGGSTYHADSVKGRFTISRDNSKNTLYLQMNSLRAEDTAVYYCARDDYDFWSGNGPPEMAVWGQGTTVTVSS VL: DIRMTQSPSSLSASVGDRVTITCRASQGISNYLAWYQQKPGKVPKLLIYAASTLQSGVPSRFSGSGSETDFTLTISSLQPEDVATYYCQKYNSVPLTFGQGTKVEIK | 0.499 | 0.005 | 2.81 |
| ADI-15650 (antibody, V domains shown, IgG; also called Antibody Number 214) VH: EVQLVESGGGLIQPGGSLRLSCAASGFTVSSKYMSWVRQAPGKGLEWVSIIYSGGSTYYADSVKGRFTISRDNSKNTLYLQMNSLRAEDTAVYYCARDDYDFWSGNGPPEMAVWGQGTTVTVSS VL: DMRLTQSPSSLSASVGDRVTITCRASQGISNYLAWYQQRPGKVPQLLIYTASTLQSGVPSRFSGSGSETDFTLTISSLQPEDVATYYCQKYDSVPLTFGQGTKVEIK | 8.3 | 0.016 | 3.52 |
| ADI-15656 (antibody, V domains shown, IgG; also called Antibody Number 220) VH: QVQLVQSGAEVKKPGASVKVSCKASGYTFTDYYMHWVRQAPGQGLEWVGWINPNSGSTNYAQKFQGRVTVTRDTSISTAYMDLSRLRSDDTAVYYCASRSWDHDAFDIWGQGTMVTVSS VL: QSVLTQPPSVSGAPGQRVTISCTGSSSNIGAGYDVHWYQQLPGRAPKLLIFGNSNRPSGVPDRFSGSKSGTSASLAITGLQPEDEADYYCHCYDSRLSVVFGGGTKLTVL | > 10 | 0.021 | 6.13 |
| ADI-15563 (antibody, V domains shown, IgG) VH: EVQLVESGGGLVQPGRSLRLSCAASGFTFDDYAMHWVRQAPGKGLEWVSGISWNSGIVKYADSVKGRFTISRDNAKNSLYLQMNSLRTEDTALYYCVKDGYTSSWHSDYHYGLDVWGQGTTVTVSS VL: DIVMTQSPATLSLSPGDRATLSCRASQNVISNLAWYQQKPGQAPRLLIYTVSTRATGIPARFSGSGSGTDFTLTISSLQSEDFAVYYCQQYNNWPLTFGGGTKVEIK | 0.014 | 0.047 | 2.2 |
| ADI-15565 (antibody, V domains shown, IgG) VH: QVQLVQSGAEVKKPGASVKVSCKASGYTFTNDINWVRQATGQGLEWMGWMNPNNGHTGYAQSFEGRVSMTRNSAINTAYLELSSLRFDDTAIYYCVYNFWSDSSVSWGQGTLVTVSS VL: QSVVTQPPSVSGAPGQSVAISCTGSSSNIGPGYDVHWYQQLPGAAPKLLIYGDSNRPSGVPDRFSTSKSGTSVSLAITGLQAEDEADYYCQSYDSSLRGYVFGTGTKLTVL | 21.3 | 6.25 | 6.76 |
| ADI-15575 (antibody, V domains shown, IgG) VH: QVQLVQSGAEVKKPGASLMVSCSASGYIFNSDINWVRQAPGQGLEWMGWMNPKNGHTGYAQEFEGRVSMTRNSSKTIAYLQLSSLTYEDTAVYYCVYDFWSDDSVKWGRGTLVTVSS VL: QSVVTQPPSVSGAPGQSVAISCSGSSSNIGPGYDVHWYQQLPGSAPKLLIYGDNNRPSGVPERFSTSKSGTSASLAITGLQAEDEADYYCQSFDSSLRGYVFGTGTKVTVL | > 10 | 1.47 | 4.16 |
| ADI-15591 (antibody, V domains shown, IgG) VH: EVQLLESGGGLVKPGGSLRLSCAASGFTFSSYGMHWVRQAPGKGLEWVSSITAGSSYMDYADSVKGRFTVSRDNGKNSLYLQMNSLRAEDTAVYFCAREDYDSRVYYLKWFDPWGQGTLVTVSS VL: QSVLTQPPSVSGAPGQRVTISCTGSSSNIGTGYDVHWYQQLPGSAPKLLIYGNSNRPSGVPDRFSGSKSGTSASLAITGLQAEDEADYYCQSYDSSRSGYVFGTGTKLTVL | 0.086 | 0.219 | 0.304 |
| ADI-15655 (antibody, V domains shown, IgG) VH: EVQLVESGGGVVQPGRSLRLSCAASGFTFSSYAMHWVRQAPGKGLEWVAVISYDEGNEYYADSVKGRFTISRANSKNTIYLQMNSLRAEDTAVYYCARDYIHGDYGLDVWGLGTTVTVSS VL: not shown | > 10 | > 10 | 8.58 |
| ADI-15571 (antibody, V domains shown, IgG) VH: QVQLVQSGAEVKKPGASVKVSCKASGYSFTDYYIHWVRQAPGQGLEWIGWINPNSGGTTFAQNFQGRVTMTRDTSISTAFLELSRLKSDDTAVYYCARDVLWLNGFWGLGTLVTVSS VL: QSVVTQPPSVSAAPGQKVTISCSGSSSNIGNNYVSWYQQFRGTAPKVLIYENNKRTSGIPDRFSGSKSGTSATLGITGLQTGDEADYYCGTWDSSLSTGPYVVFGGGTKLTVL | 0.541 | 0.43 | 25.7 |
| ADI-15583 (antibody, V domains shown, IgG) VH: QVQLVQSGAEVKKPGESLKISCKTSGYKFTNYWIGWVRQMPGKGLEWMGIIYPGDSDARYSPSFQGQVTFSADKSISTAYLQWSSLKASDTAMYYCARQDNSGWADFFPFDYWGQGTLVTVSS VL: ETTLTQSPGTLSLSPGERATLSCRASHSFSSSYLAWYQQKPGQAPRLLIYAASNRATGIPDRFSGSGSGTDFTLTISRLEPEDFAVYFCQQYDSSPWTFGQGTKVEIK | 0.443 | 0.377 | 0.351 |
| ADI-15643 (antibody, V domains shown, IgG) VH: QVQLVQSGAEVKKPGESLKISCKTSGYRFTNYWIGWVRQMPGKGLEWMGIIYPGDSDARYSPSFQGQVTFSADKSISTAYLHWSSLKASDTAMYYCARQDDSGWADFFPFDYWGQGTLVTVSS VL: EIVLTQSPGTLSLSPGERATLSCRASHSFSSTYLAWYQQKPGQAPRLLIYAASNRATGIPDRFSGSGSGTDFTLTISRLEPEDFAVYFCQQYDSSPWTFGQGTKLEIK | 0.039 | 0.115 | 0.162 |
| ADI-15638 (antibody, V domains shown, IgG) VH: EVQLVESGGGLVKPGGSLRLSCAASGFTITSYGMNWVRQAPGKGLEWVSSISSSSSFIHYGDSVKGRFTISRDNAKNSLYLQMNSLRAGDTAVYYCVRDSGHQDYRGDYWGQGTLVTVSS VL: QSVVTQPPSVSGAPGQRVSISCTGSSSNIGAGYDVHWYQQLPGTAPKLLIYTNNNRPSGVPDRFSGSKSGTSASLAINGLQAEDEADYYCQSYDRSLSGWVFGGGTKLTVL | 0.178 | > 10 | 0.402 |
| ADI-15649 (antibody, V domains shown, IgG) VH: EVQLVESGGGLVKPGGSLRLSCAAPGFTIRSYTMYWVRQAPGKGLEWVASISSSSSYIHYGDSVKGRFTIARDNAKNSLYLQMNSLRAEDTAVYYCVRDHCTGGSCYLNGMDVWGQGTTVTVSS VL: QPVLTQPPSVSGAPGQRVTISCTGTSSNIGAGYDVHWYQQLPGTAPKLLIYGNNNRPSGVPDRFSGSKSGTSASLAITGLQAEDEADYYCQSYDSSLSGSVFGGGTKLTVL | > 10 | 2.19 | 0.329 |
| ADI-15564 (antibody, V domains shown, IgG) VH: QVQLVQSGAEVKKPGSSVKVSCKASGDTFNSYSISWVRQAPGQGLEWMGGILPMFGSSDYAQKFQGRLTITADESTRTAYMELNSLTSEDTAIYYCARDNYYVWTGRYPEFDFWGQGTLVTVSS VL: EIVLTQSPGTLSLSPGDEATLSCRASQSVTSNYLAWYQQRPGQAPRLLISGASRRATAVPDRFSGSGSGTDFTLTISRLEPEDFAVYYCQQYGSTPITFGQGTRLEIK | 0.011 | 0.016 | 0.64 |
| ADI-15566 (antibody, V domains shown, IgG) VH: QVQLVQSGAEVKKPGASVKVSCKASGFTFTNYGISWVRQAPGRGLEWMGWISAYNGNTEYAQKLQDRLTMTTDTSTNTAYMELRSLRSDDTALYYCARESGVAAAATLLYWGQGTLVTVSS VL: ETTLTQSPLSLPVTLGQPASISCRSSQSLVYSDGNTYLSWFQQRPGQSPRRLIYKVSNRDSGVPDRFSGSGSGADFTLKISRVEAEDVGVYYCMQGIYWPRTFGQGTKVDIK | 0.01 | 0.043 | 0.264 |
| ADI-15587 (antibody, V domains shown, IgG) VH: EVQLVESGGGVVRPGGSLRLSCAASGFKFDDYGMSWVRQAPGKGLEWVSAIIWNSGSTGYADSVKGRFIISRDNAKNSLYLQMNSLRAEDTALYYCARVGGITKWWYYGMDLWGQGTTVTVSS VL: ETTLTQSPSFLSASVGDRVTITCRASQGLSNYLAWYQQKPGRAPKLLIYAASTLQSGVPSRFRGSGSGTEFTLTISSLQPEDLATYYCQHLNSYPLTFGGGTKVEIK | > 10 | 0.13 | 2.42 |
| ADI-15568 (antibody, V domains shown, IgG) VH: QVQLVESGAEVQKPGASVKISCKASGYKFISYSIHWVRQAPGQGLEWMGVINPGGGLTNYAQKFQDRLTMTRDTSTATVTMELRSLRSDDRAVYFCGREDSYCSGDSCFNSGSGRWVDSWGQGTLVTVSS VL: DIQVTQSPSSLSASVGDRVTITCRASQSVITYLNWYQQKPGKAPQLLVYAASILQSGVPSSFSGSGSGTDFTLTISSLQPEDFATYYCQQTYSTPHTFGQGTKVDIK | 0.016 | 0.033 | 0.699 |
| ADI-15586 (antibody, V domains shown, IgG; also called Antibody Number 153) VH: EVQLVESGGGVVQPGKSLRLSCAASGFIFSGYGMHWVRQAPGKGLEWVAFIWFDGSSTYYADSVKGRFTISKDDSKQTVYLQMNRLRAEDTAVYYCARDPLFLYNYNDEPFDYWGQGTLVTVSS VL: SYELTQPPSASGSPGQSVTISCSGSSSNIGGNFVYWYQQLPGTAPKVLIYRNNQRPSGVPDRFSGSKSGTSASLAISGLRSDDEADYYCSVWDDSLNGRLFGGGTKLTVL | > 10 | 1.02 | 5.78 |
| ADI-15569 (antibody, V domains shown, IgG) VH: EVQLVESGAEVKKPGASVKVSCKASGYTFANYGITWVRQAPGQGLEYMGWISAYNGNTNYAQKFQGRVTMTTDTSTSTAYMELRSLRSDDTAIYYCARDPGVTAAVLLDYWGQGALVTVSS VL: DIVLTQSPLSLPVTLGQPASISCRSSQSLVFSDGNTYLSWFQQRPGQSPRRLLYKVSNRDSGVPDRFSGSGSGTDFTLTISRVEAEDVGVYYCLQGTPPYTFGQGTKVDIK | 0.006 | 0.035 | 0.25 |

From patent publication US20220144922A1 (Adimab, published 2022)
